The Kd is the equilibrium constant for the complex coming apart.

The target in one series is T1, biotinylated TEAD (Homo sapiens, UniProt P28347).
T1 construct: GST; made in house; host or cells: Hi5 insect cells (baculovirus, BacMagic, pIEX-BAC3)
Nature of the series: Surface plasmon resonance (SPR) binding of soluble peptides to captured biotinylated TEAD. As to conditions: biotinylated TEAD immobilized on an SPR chip, read-out: dissociation constant (KD). A general note: Surface plasmon resonance follows binding to a sensor surface in real time, without labels.

Series [1] deals with HeLa cells expressing the HaloEnzyme. The series is classed as cell-based. As to conditions: 1 μM HT-labeled peptide, 4 hours. The method, then:
HeLa cells expressing the HaloEnzyme (a modified bacterial haloalkane dehalogenase, further modified to target to the cytosol-facing side of the outer mitochondrial membrane) were grown in 24 well dishes until ˜60% confluent. […] After incubation, cells were rinsed and incubated with Opti-MEM for 30 minutes, and were then incubated with 5 μM HT-TAMRA ligand (Promega G8251) for 30 minutes. An additional control with no HT-TAMRA was tested. After this incubation, cells were rinsed with PBS and then imaged on a fluorescent microscope in FITC/green (all cells) and TRITC/red (HT-TAMRA accumulation) channels.
FIG. 28 illustrates cell-by-cell quantitation of average fluorescence in the red channel of cells in a CAPA.

The nature of series [2]: SYPRO Orange thermal shift (melting) assay. The series is classed as physicochemical. As to conditions: heating from 20° C. to 95° C. The method, then:
Thermal Shift Assay. Protein melting temperature (Tm) determination can be performed by monitoring protein unfolding using SYPRO Orange dye (Molecular Probes). In brief, 0.1 mg/mL protein sample in 20 μL total volume PBS buffer can be mixed with 2 μL of 10×SYPRO Orange dye. Dye intercalation into the hydrophobic protein core following protein unfolding was assayed using the C1000 Touch Thermal Cycler with CFX96 Deep Well Real-Time System (BioRad). Samples were heated from 20° C. to 95° C. with stepwise increments of 0.5° C. per minute and a 5 see hold step for every point, followed by fluorescence reading. Tm were calculated by analyzing the derivatives of Relative florescence Units (RFU).
Protein secondary structures were assessed using Circular Dichroism (CD). CD spectra were measured with a Jasco J-720W spectropolarimeter using a 1.0 mm path length cell. Protein samples in 10 mM phosphate buffer (pH=7.4) were at 25-30 μM protein concentration. Samples were analyzed at wavelength ranges of 260-190 nM. Data were expressed in terms of relative ellipticity; (mdeg). […] Samples were heated from 20° C. to 95° C. with stepwise increments of 0.5° C. per minute and a 5 sec hold step for every point, followed by fluorescence reading. Tm was calculated by analyzing the derivatives of Relative florescence Units (RFU). […]

T1 sequence (P28347 209-426): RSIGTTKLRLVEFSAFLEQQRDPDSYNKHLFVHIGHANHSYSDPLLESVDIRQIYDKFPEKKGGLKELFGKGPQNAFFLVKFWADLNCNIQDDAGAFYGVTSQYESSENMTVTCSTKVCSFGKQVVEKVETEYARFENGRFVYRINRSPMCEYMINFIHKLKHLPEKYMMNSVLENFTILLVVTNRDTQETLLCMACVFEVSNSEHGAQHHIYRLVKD

B1: Siderocalin-fused YAP: YAP (50-171) produced as a soluble siderocalin fusion (protein)
chain: QDSTSDLIPAPPLSKVPLQQNFQDNQFQGKWYVVGLAGNAILREDKDPQKMYATIYELKEDKSYNVTSVLFRKKKCDYWIRTFVPGCQPGEFTLGNIKSYPGLTSYLVRVVSTNYNQHAMVFFKKVSQNREYFKITLYGRTKELTSELKENFIRFSKSLGLPENHIVFPVPIDQCIDGAGHQIVHVRGDSETDLEALFNAVMNPKTANVPQTVPMRLRKLPDSFFKPPEPKSHSRQASTDAGTAGALTPQHVRAHSSPASLQLGAVSPGTLTPTGVVSGPAATPTAQHLRQSSFEIPDDV
modifications: left off: small tags and cut ends
As for B1, the Kd in the series with biotinylated TEAD came to 570 nM.

B2: GSGDCLPHLKRCKADNDCCGKKCKRRGTNAEKRCREPKSSDKTHTPDEYIERAKECCKKQDIQCCLRIFDESKDPNVMLICLFCW (peptide)
chain: GSGDCLPHLKRCKADNDCCGKKCKRRGTNAEKRCREPKSSDKTHTPDEYIERAKECCKKQDIQCCLRIFDESKDPNVMLICLFCW
B2: the cell penetration result in series [1] is recorded as “high cell penetration”.

B3: Human siderocalin: Human siderocalin (HuScn), control protein in SYPRO Orange melting assay (protein, UniProt P80188 21-198, looked up)
Neutrophil …: QDSTSDLIPAPPLSKVPLQQNFQDNQFQGKWYVVGLAGNAILREDKDPQKMYATIYELKEDKSYNVTSVLFRKKKCDYWIRTFVPGCQPGEFTLGNIKSYPGLTSYLVRVVSTNYNQHAMVFFKKVSQNREYFKITLYGRTKELTSELKENFIRFSKSLGLPENHIVFPVPIDQCIDG
Consider B3, for which the melting temperature in series [2] worked out at 79 °C.
